Experimental data taken from patent publication US6365161.
Values belong to the substance of their own block, whether it stands above or below them.

Key:
[1] = target: soluble fusion protein consisting of the extracellular domain of human FcγRI and human IgM heavy chain (sFcγRI-µ) (human) (UniProt P12314); experiment: ELISA on captured FcγRI/IgM heavy chain fusion protein, against a nonspecific human IgG1
[2] = target: soluble fusion protein consisting of the extracellular domain of human FcγRI and human IgM heavy chain (sFcγRI-µ) (human) (UniProt P12314); experiment: ELISA on captured FcγRI/IgM heavy chain fusion protein, in excess human IgG1
[3] = target: human FcγRI (CD64) on cells (human) (UniProt P12314); experiment: cell-based or functional assay
[4] = target: human FcγRI (CD64) on cells (human) (UniProt P12314); experiment: flow cytometry, fluorescein-conjugated antibody on peripheral blood monocytes
Target sequence in this assay (P12314 16-374): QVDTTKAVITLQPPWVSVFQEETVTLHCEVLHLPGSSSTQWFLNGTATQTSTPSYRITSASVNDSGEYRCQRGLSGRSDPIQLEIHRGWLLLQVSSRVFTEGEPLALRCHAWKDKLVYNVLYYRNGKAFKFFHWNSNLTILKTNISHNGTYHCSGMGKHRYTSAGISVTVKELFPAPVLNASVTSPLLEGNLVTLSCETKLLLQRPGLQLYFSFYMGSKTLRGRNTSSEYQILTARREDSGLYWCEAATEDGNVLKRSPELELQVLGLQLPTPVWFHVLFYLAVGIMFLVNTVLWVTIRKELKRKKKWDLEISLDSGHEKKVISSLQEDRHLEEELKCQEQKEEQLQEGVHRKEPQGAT

Sequence of soluble fusion protein consisting of the extracellular domain of human FcγRI and human IgM heavy chain (sFcγRI-µ) (human) (P12314 other isoform, or with tags, fused parts or gaps limits assumed): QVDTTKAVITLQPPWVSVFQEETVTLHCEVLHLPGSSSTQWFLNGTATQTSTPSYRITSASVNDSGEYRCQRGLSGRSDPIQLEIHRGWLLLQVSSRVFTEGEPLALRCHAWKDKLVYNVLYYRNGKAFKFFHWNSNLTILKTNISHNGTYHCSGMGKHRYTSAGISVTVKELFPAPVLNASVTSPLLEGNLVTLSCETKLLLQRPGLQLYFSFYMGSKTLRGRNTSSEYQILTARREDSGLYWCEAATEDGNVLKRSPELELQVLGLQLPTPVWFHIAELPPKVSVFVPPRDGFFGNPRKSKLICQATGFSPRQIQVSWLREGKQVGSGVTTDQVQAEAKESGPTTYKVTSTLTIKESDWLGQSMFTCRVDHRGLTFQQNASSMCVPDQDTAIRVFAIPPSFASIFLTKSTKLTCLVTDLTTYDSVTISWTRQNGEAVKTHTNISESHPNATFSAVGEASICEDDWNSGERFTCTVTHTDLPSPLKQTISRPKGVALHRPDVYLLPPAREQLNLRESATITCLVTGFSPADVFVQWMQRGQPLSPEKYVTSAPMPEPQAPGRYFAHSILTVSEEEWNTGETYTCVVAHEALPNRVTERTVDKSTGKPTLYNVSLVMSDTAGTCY

percent of binding via the Fv portion [1]: > 95% | fold lower affinity than the chimeric mAb [2]: 5 fold
Substance: NEWM VH/REI Vκ humanized mAb 22 (antibody)

FcγRI expression on monocytes in whole blood (modulation assay) (% of the level prior to BsAb treatment) [3]: 50
Substance: TsAb m22 Fab′x32.2 Fab′xm22 Fab′

Antibody sites per cell (antibody sites per cell) [4]: 10000
Substance: murine anti-FcγRI monoclonal antibody M22

human CD64 surface expression on macrophages of human CD64-transgenic mice [3]: < 50 % reduction
Substance: chemically linked M22 Fab′ multimer M22 F(ab′)3+
